T1: mouse FcγRIV (Mus musculus, UniProt A0A0B4J1G0)
T1 construct: made in house; host or cells: HEK293E cells (transient)
T1 sequence (A0A0B4J1G0 21-249): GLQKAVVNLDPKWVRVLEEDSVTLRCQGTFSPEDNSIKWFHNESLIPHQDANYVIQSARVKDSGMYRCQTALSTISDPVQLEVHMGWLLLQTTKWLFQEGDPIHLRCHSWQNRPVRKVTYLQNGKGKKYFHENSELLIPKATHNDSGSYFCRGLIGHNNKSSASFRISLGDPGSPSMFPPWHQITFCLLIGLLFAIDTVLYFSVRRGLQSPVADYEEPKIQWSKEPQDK


Columns and labels:
primary patient MM cells = assay: SCID-hu mouse model of multiple myeloma; type: in vivo
Description: Bone marrow cells (>20% plasma cells) from myeloma patients (two patients in experiment 1 [top panel] and two different patients in experiment 2 [lower panel]) were injected into transplanted human fetal bones of SCID-hu mice. Four weeks after myeloma cell inoculation mice were divided into four groups to yield similar mean hIgG levels between groups, each group comprising mice grafted with MM cells from the different patient donors used in the experiment, and twice weekly treatment with 2 mg/kg BI-505, 1 mg/kg bortezomib or 2 mg/kg control human IgG was started (arrow). […] Graphs show mean hIgG concentrations.
Primary human MM cells depend on interactions with bone marrow stromal cells to proliferate and survive. The SCID-hu mouse harbors a human microenvironment where primary patient MM cells proliferate and induce pathology similar to human clinical MM (Yaccoby et al., 1998). MM cell derived human IgG titers were detected (>10 μg/ml) in the serum of SCID-hu mice four weeks after implantation of human MM cells to transplanted human bones, at which time treatment with antibodies (2 mg/kg) or bortezomib (1 mg/kg) began. Human IgG titers increased steadily in control treated SCID-hu mice over the course of experimentation to reach maximal concentrations of 40±5 μg/ml just before sacrifice (FIG. 18B and FIG. 19). […] Two independent experiments were performed with similar results (FIG. 18B and FIG. 19), each with MM cells from two different patient donors (n=4).
Human fetal femurs and tibias, obtained at 17 to 22 gestational weeks, were cut into fragments and implanted subcutaneously in SCID mice (SCID-hu) at age 6 to 8 weeks. Each animal was implanted with one bone fragment. Four weeks after bone implantation, 2 to 14×10^6 bone marrow cells from each patient (two patients per experiment for a total of four patients in two independent experiments, n=4), containing>20% plasma cells were injected directly into the human bone of 6 to 8 SCID-hu mice in a final volume of 30 to 40 μl of phosphate-buffered saline (PBS). One group of mice was implanted with bone only and served as “healthy” bone control. Mouse sera were serially monitored for human immunoglobulin (hIg) and the isotype levels were used as an indicator of myeloma cell growth by elisa. When hIg level reached 10 μg/mL or higher in 2 consecutive measurements after 4 weeks of injection of the tumor cells, the mice were divided into four groups to yield similar mean hIgG levels between groups, each group comprising mice grafted with MM cells from the different patient donors used in each experiment. The four treatment groups were: healthy control group (no myeloma cells injected and no drug treatment), isotype control group (myeloma cells injected and treated with isotype control IgG, 2 mg/kg, i.p., twice weekly), BI505 group (myeloma cells injected and treated with BI505, 2 mg/kg, i.p., twice weekly) and bortezomib group (myeloma cells injected and treated with 1 mg/kg, i.p., twice weekly). In some graphs hIgG levels were normalized to pretreatment (4 weeks) levels and the percent increase or decrease in hIgG levels as a function of treatment and time was analyzed. Normalized data from animals receiving the same treatment (control IgG, BI-505 or bortezomib) but grafted with MM cells from each of the four different patient donors in the two experiments were pooled and statistical difference was assessed by grouped 2-way ANOVA test and Bonferroni's posttest using GraphPad Prism 5 software. Patient myeloma cells were taken after informed consent and with the approval of the local ethics committee. For x-radiography evaluation and quantification of bone mineral density (BMD) mice in the four groups were sacrificed and the implanted human bones were taken out and fixed in 10% formalin solution. Radiographs were taken with an AXR Minishot-100 beryllium source instrument (Associated X-Ray Imaging Corp., Haverhill, Mass., USA) and 100 s exposure at 30 kV. […]

[1] = tested on: endothelial cells (HUVEC, HMVEC); assay: HUVEC and HMVEC apoptosis assay; type: cell-based; settings: resting or IFN-γ activated HUVEC/HMVEC, antibody cross-linked or not
Description: (FIG. 23G) Antibody-induced endothelial cell apoptosis. HUVEC or HMVEC endothelial cells were incubated with paclitaxel (positive control), BI-505 or isotype control IgG in the presence or absence of cross-linking mAb. Apoptosis was measured by flow-cytometry following staining of cells with Annexin V-AF488.
Based on BI-505's documented ability to confer Fc:FcγR-dependent antitumor activity in malignant B cells, and a proposed general negative role for complement activation with regard to antibody tolerability (Lim et al.; van der Kolk et al., 2001), direct cytotoxic effects (PCD, ADCC, and CDC) of BI-505 in ICAM-1-expressing human peripheral blood B cells and endothelial cells were examined.
HUVEC (Cascade Biologics, pool of donors) and HMVEC (Cascade Biologics) were plated in 6-well plates (80 000-120 000 cells/well) in the presence or absence of 200 U/mL IFNγ, in order to induce ICAM-1 expression. Media was changed the day before apoptosis-induction experiments were performed and titrated concentrations of BI-505, enlimomab or isotype control antibody were added to the cells, in the presence or absence of cross-linking Fab (ab′)2 (same as the B-cell protocol). […] Necrotic cells were identified by increased fluorescence in the FL-4 channel and apoptotic cells by increased signal in the FL-1 channel on a flow cytometer (FACSCalibur, BD Bioscience).

mouse FcγRIV = biological target: T1, mouse FcγRIV; assay: BiaCore analysis of BI-505 Fc-variant binding to FcγR
Description: (FIG. 20B) BiaCore analysis of BI-505 Fc-variant antibodies binding to mouse FcγRIV.
(§1) His-tagged human FcγRIIIa and mouse FcγRIV were transiently expressed in HEK293E cells, purified using Ni-NTA chromatography, and characterized by SDS-PAGE and/or Biacore. Surface plasmon resonance (SPR) measurements were performed using a Biacore 3000 instrument. Goat F(ab)′2 α-human-F(ab)′2 fragments (Jackson Laboratories) were immobilized with a CM-5 chip using a standard amine coupling protocol. BI-505 (IgG1) and IgG4 or IgG1 297Q variants of BI-505 were diluted to 15 and 60 μg/mL respectively and added to the surface at 10 μL/min for 3 min. His-tagged human FcγRIIIa or mouse FcγRIV was pre-incubated with an α-HIS antibody (R&D Systems) at a 2:1 molar ratio before addition to the chip surface, 30 μL/min, for 1 min. After each cycle the surface was regenerated twice with glycine buffer pH 1.7.

human FcγRIIIa = biological target: T2, human FcγRIIIa (Homo sapiens, UniProt P08637); assay: as above
T2 construct: made in house; host or cells: HEK293E cells (transient)
T2 sequence (P08637 17-254): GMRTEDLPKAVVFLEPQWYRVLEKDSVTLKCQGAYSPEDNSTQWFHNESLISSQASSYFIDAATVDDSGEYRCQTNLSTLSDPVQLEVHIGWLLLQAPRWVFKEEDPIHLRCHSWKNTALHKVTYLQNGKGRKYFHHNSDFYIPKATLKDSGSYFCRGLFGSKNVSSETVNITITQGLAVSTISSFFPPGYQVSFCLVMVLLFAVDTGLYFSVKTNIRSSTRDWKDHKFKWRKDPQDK
Description: (FIG. 20C) BiaCore analysis of BI-505 Fc-variant antibodies binding to human FcγRIIIa.
as §1

RPMI-8226 cells = assay: Macrophage ADCP; type: cell-based; settings: RPMI-8226, human macrophages
Description: (§2) Cultured macrophages were detached and plated in flat 96-well plates at 50 000 cells/well and placed in 37° C. CFSE-stained target cells were incubated with antibodies for up to 1 hr on ice. After washing, the different cell solutions were added to the culture plates containing macrophages at a ratio of 5:1 (Target cells:Macrophages). Thereafter, the culture plates were incubated at 37° C. for 1-2 hr (primary patient MM cells) or 16 hr (RPMI-8226 cells). The percentage of macrophages that had phagocytosed tumor cells (CFSE^+, CD206^+) per total analyzed macrophages was determined following gating and acquisition of 5000 CD206^+ cells/sample.
(§3) Buffy coats from healthy human donors were ordered through the local blood central at Lund University Hospital and Halmstad Hospital. Peripheral blood mononuclear cells (PBMCs) were first extracted using Ficoll-Paque PLUS (GE Healthcare Life Sciences), followed by isolation of monocytes with CD14 MicroBeads and MACS separation (Miltenyi Biotec). The monocytes were cultured in RPMI 1640 medium with 10% heat-inactivated FBS (Invitrogen) and 25 ng/mL of recombinant human M-CSF (R&D Systems) for 6-14 days, causing differentiation into macrophages. Medium with M-CSF was changed every 2-3 days upon initiation of cultures.
(§4) RPMI-8226 cells (ATCC) were continuously cultured in RPMI 1640 medium supplemented with 10 mM HEPES, 1 mM sodium pyruvate and 10% FBS. For multiple myeloma cells, freshly isolated bone marrow samples were donated by patients at Lund University Hospital and subsequently processed with Ficoll-Paque PLUS. Negative isolation of malignant plasma cells was then performed using the Plasma Cell Isolation Kit II according to the manufacturer's instructions (Miltenyi Biotec).
(§5) At least 4 h before co-culture with target cells the cultured macrophages were detached with Accutase (Sigma Aldrich), before plated in flat 96-well plates at 50 000 cells/well and placed in 37° C. […] After washing, the different cell solutions were added to the culture plates containing macrophages at a ratio of 5:1 (Target cells:Macrophages). Thereafter, the culture plates were incubated at 37° C. for 1-2 hr (primary patient MM cells) or 16 hr (RPMI-8226 cells). Next, samples were stained with APC-conjugated anti-CD206 antibody (BD Biosciences), before harvested by scraping the culture plate wells. The resulting cell solutions were then analyzed by flow cytometry, where CD206^+ macrophages were gated and acquired at 5000 cells/sample. A cut-off level identifying CFSE^+, CD206^+ double positive (phagocytic) macrophages was set for each experimental sample series. This level differed between the individual assays since the magnitude of basic (unstimulated) phagocytosis varied (different donors and time-points) among the experiments.

[2] = tested on: primary patient's MM cells; assay: Macrophage ADCP; type: cell-based; settings: human macrophages
Description: as §2, §3, §4, §5

[3] = mouse, 2 mg/kg
Description: Blood samples collected from the vena cava were centrifuged at 2500 g for 15 min to obtain serum and the samples were stored at −20° C.
Sera were prepared from blood samples collected from the vena saphena from 3 animals in each group at different time-points during the course of in vivo experimentation. Briefly, ELISA plates were coated over night with human ICAM-1 protein. The following day, plates were incubated with the serum samples. Biotinylated goat-anti-BI-505 was used for detection of BI-505 in the serum samples. Sera were analysed by ELISA to determine BI-505 trough levels. Trough BI-505 serum concentrations were then plotted as a function of dose and were fitted using five parameter log-log curve and XLfit software (IDBS, Guildford, United Kingdom).

ARH-77 tumors = assay: SCID/ARH-77 subcutaneous xenograft model; settings: established ARH-77 tumors
Description: For subcutaneous grafting, 1-5×10^6 tumor cells (RPMI-8226, NCI-H929, EJM, OPM-2, ARH-77, or Daudi) were subcutaneously injected at a volume of 100 μl into the left flank of anesthetized mice as described in the Supplemental Information. […] Treatment with saline, isotype control IgG, bortezomib, lenalidomide, dexamethasone, or BI-505 started on day 5 (RPMI-8226). Treatment with melphalan started on day 10. BI-505 or isotype IgG mAb was administered i.v. at 2 mg/kg/inj twice weekly for 8 weeks; bortezomib at 1 mg/kg/inj once weekly for 8 weeks; lenalidomide orally at 2 mg/kg/inj for 2 cycles consisting of 5 days of treatment and 2 days of wash out; melphalan i.v. at 3 mg/kg/inj once weekly for 8 weeks; and dexamethasone at 6 mg/kg/inj three times weekly for 2 weeks.
Mice were anaesthetized with a mixture of sevofluran and oxygen prior to myeloma cell inoculation and 1-10×10^6 myeloma cells were then subcutaneously injected in a volume of 100 μl into the left flank. Treatment with antibodies by intraperitoneal injection started either 1 day after cell inoculation (prophylactic model) or when tumors reached approximately 100 mm^3 (established model). Antibodies were administered in 200 μL of PBS. Treatment with PBS only or isotype IgG were used as controls. Macrophages or NK-cells were depleted by i.p. administration of 0.1 ml clodronate liposomes (Clophosome-A, FormuMax, Scientific Inc. Palo Alto, USA) or 20 μl anti-asialo GM1 pCI Ab (CL8955, Cedarlane Laboratories Limited, Canada) respectively, starting one day prior to antibody treatment, followed by administration twice weekly for a total of three weeks, PBS was used as control.
Tumor size was measured using a digital calliper and tumor volumes were calculated according to the formula width^2×length×0.52, as previously described (Cao et al., 1999).
Statistical analyses of tumor growth inhibition relative to control antibody treatment were carried out using Kruskal-Wallis nonparametric ANOVA with Dunn's multiple comparisons test or Mann-Whitney non-parametric analysis, as indicated in the figure legends.

| binding to mouse FcγRIV, order (mouse FcγRIV) | Molecule | In vivo serum concentrations [3] | in vivo antitumor activity of Fc-variants, order (ARH-77 tumors) | also measured |
| --- | --- | --- | --- | --- |
| IgG1 N297Q<IgG4<IgG1 | BI-505 IgG1 N297Q: BI-505 variant with abolished FcγR-binding (antibody, V domains shown) VH: EVQLLESGGGLVQPGGSLRLSCAASGFTFSNAWMSWVRQAPGKGLEWVAFIWYDGSNKYYADSVKGRFTISRDNSKNTLYLQMNSLRAEDTAVYYCARYSGWYFDYWGQGTLVTVSS VL: QSVLTQPPSASGTPGQRVTISCTGSSSNIGAGYDVHWYQQLPGTAPKLLIYDNNNRPSGVPDRFSGSKSGTSASLAISGLRSEDEADYYCQSYDSSLSAWLFGGGTKLTVLG | 9.6 ± 3 µg/mL | IgG1 N297Q<IgG4<IgG1 | binding to human FcγR (human FcγRIIIa): did not bind to human FcγR; ADCP (RPMI-8226 cells): did not confer ADCP; ADCP [2]: did not confer ADCP |
| IgG1 N297Q<IgG4<IgG1 | BI-505 IgG4: BI-505 variant with reduced FcγR-binding compared to wildtype BI-505 IgG1 (antibody, V domains shown) VH: EVQLLESGGGLVQPGGSLRLSCAASGFTFSNAWMSWVRQAPGKGLEWVAFIWYDGSNKYYADSVKGRFTISRDNSKNTLYLQMNSLRAEDTAVYYCARYSGWYFDYWGQGTLVTVSS VL: QSVLTQPPSASGTPGQRVTISCTGSSSNIGAGYDVHWYQQLPGTAPKLLIYDNNNRPSGVPDRFSGSKSGTSASLAISGLRSEDEADYYCQSYDSSLSAWLFGGGTKLTVLG | 13 ± 3.1 µg/mL | IgG1 N297Q<IgG4<IgG1 | – |

Further lines, the molecule ahead of its results:

| Molecule | binding to mouse FcγRIV, order (mouse FcγRIV) | In vivo serum concentrations [3] | in vivo antitumor activity of Fc-variants, order (ARH-77 tumors) | also measured |
| --- | --- | --- | --- | --- |
| CC(C)C[C@H](NC(=O)[C@H](Cc1ccccc1)NC(=O)c1cnccn1)B(O)O [bortezomib, reference compound] | – | – | – | bone osteoclasts (primary patient MM cells; TRAP staining, compared to control-treated mice): reduced numbers of bone osteoclasts; serum human IgG levels (primary patient MM cells; antibody 2 mg/kg or bortezomib 1 mg/kg twice weekly): halted or reduced serum human IgG levels to below pre-treatment levels |
| CC(=O)O[C@H]1C(=O)[C@@]2(C)[C@H]([C@H](OC(=O)c3ccccc3)[C@]3(O)C[C@H](OC(=O)[C@H](O)[C@@H](NC(=O)c4ccccc4)c4ccccc4)C(C)=C1C3(C)C)[C@]1(OC(C)=O)CO[C@@H]1C[C@@H]2O [paclitaxel, reference compound] | – | – | – | cell death in normal cells [1]: induced significant PCD |

From patent US9803013B2, “Biological materials and uses thereof” (BioInvent International AB, priority 2005, dated 2017)
